This is an account of results in publication PMC8420271 (The EMBO Journal, 2021).

In the assay the target is His-tagged SARS-CoV-2 nucleocapsid (SARS-CoV-2, UniProt P0DTC9 1-419). Kind of assay: pull-down.

B1: GST-GSDMD mutant lacking amino acids 265-284 (natural protein)
chain: MGSAFERVVRRVVQELDHGGEFIPVTSLQSSTGFQPYCLVVRKPSSSWFWKPRYKCVNLSIKDILEPDAAEPDVQRGRSFHFYDAMDGQIQGSVELAAPGQAKIAGGAAVSDSSSTSMNVYSLSVDPNTWQTLLHERHLRQPEHKVLQQLRSRGDNVYVVTEVLQTQKEVEVTRTHKREGSGRFSLPGATCLQGEGQGHLSQKKTVTIPSGSTLAFRVAQLVIDSDLDVLLFPDKKQRTFQPPATGHKRSTSEGAWPQLPSGLSEDFQGLRAEVETISKELELLDRELCQLLLEGLEGVLRDQLALRALEEALEQGQSLGPVEPLDGPAGAVLECLVLSSGMLVPELAIPVVYLLGALTMLSETQHKLLAEALESQTLLGPLELVGSLLEQSAPWQERSTMSLPPGLLGNSWGEGAPAWVLLDECGLELGEDTPHVCWEPQAQGRMCALYASLALLSGLSQEPH
In the case of B1, the binding result is reported as “binds”.
